In patent US20230192903A1 (published 2023):
Residue numbers refer to the chain shown, from its start. In names and notes the source's numbering stands.

Experiments:
Human CLDN18.2 [1] = molecular target: T1, Human CLDN18.2 (human); assay: flow cytometry, NUGC4-hCLDN18.2 cells
T1 construct: the cell line is named under assay; also called hCLDN18.2; human CLDN18.2 antigen
Procedure: (§1) NUGC4 and NUGC4-hCLDN18.2 cells were cultured, digested with pancreatin and centrifuged to collect cells. The cells were collected and resuspended in buffer (PBS+1% FBS) at 1×10⁴ cells/well in a 96-well plate at 100 μL per well. Then the mixture was centrifuged at 350×g for 5 min, and the supernatant was removed.

Human CLDN18.1 = molecular target: T2, Human CLDN18.1 (human, UniProt P56856 1-261); assay: flow cytometry, 293T-hCLDN18.1 cells
T2 construct: also called hCLDN18.1

Human CLDN18.2 [2] = molecular target: T1, Human CLDN18.2; assay: cell-based or functional assay
Human CLDN18.2 [3] = molecular target: T1, Human CLDN18.2; assay: cell-based or functional assay; remark: listed apart in the source
human CD3 antigen = molecular target: T3, human CD3 antigen (human, UniProt P07766 23-126); assay: SPR (Biacore T200), human CD3 antigen amine-coupled on CM5 chip, 1:1 fit
T3 construct: also called Human CD3ϵ
Procedure: After the detection was completed, data fitting was carried out on the result pattern by adopting Biacore T200 Evaluation Software in a 1:1 binding fitting mode to obtain an equilibrium dissociation constant (KD).

Human CLDN18.2 [4] = molecular target: T1, Human CLDN18.2; assay: flow cytometry, NUGC4-hCLDN18.2 cells; remark: listed apart in the source
Procedure: as §1

Human CLDN18.2 [5] = molecular target: T1, Human CLDN18.2; assay: cell-based or functional assay; remark: listed apart in the source
Human CLDN18.2 [6] = molecular target: T1, Human CLDN18.2; assay: flow cytometry, NUGC4 cells (endogenous CLDN18.2)
Procedure: as §1

B1: IMAB362 monoclonal antibody (antibody, human IgG1, kappa, V domains shown)
VH: QVQLQQPGAELVRPGASVKLSCKASGYTFTSYWINWVKQRPGQGLEWIGNIYPSDSYTNYNQKFKDKATLTVDKSSSTAYMQLSSPTSEDSAVYYCTRSWRGNSFDYWGQGTTLTVSS
VL: DIVMTQSPSSLTVTAGEKVTMSCKSSQSLLNSGNQKNYLTWYQQKPGQPPKLLIYWASTRESGVPDRFTGSGSGTDFTLTISSVQAEDLAVYYCQNDYSYPFTFGSGTKLEIKR
notes: prepared by Wuhan YZY Biopharma; also called Anti-CLDN18.2 monoclonal antibody IMAB362
- EC50 (Human CLDN18.2 [1]): 10.8 nM

B2: Anti-CLDN18.2 monoclonal antibody 2C6.9 (antibody, human IgG1, kappa, V domains shown)
VH: QVQLQESGPGLVKPSETLSLTCTVSGFSLTRYGVSWIRQPPGKGLEWIGVIWGEGNTNYNPSLKSRVTISKDSSKSQVSLKLSSVTAADTAVYYCARVNFGNALDYWGQGTLVTVSS
VL: DIVMTQSPDSLAVSLGERATINCKSSQSLLNSGNQKNYLTWYQQKPGQPPKLLIYWASTRDSGVPDRFSGSGSGTDFTLTISSLQAEDVAVYYCQNDFIFPLTFGGGTKVEIKR
notes: prepared by Wuhan YZY Biopharma
- binding result (Human CLDN18.1): no binding (tested: 1000 nM)

B3: anti-CLDN18.2 monoclonal antibody 1E9.2 (antibody, human IgG1, kappa, V domains shown)
VH: EVQLVESGGGLVKPGGSLRLSCAASGFSFSNSAMSWVRQAPGKGLEWVSTISSGDSYTYYADSVKGRFTISRDNAKNSLYLQMNSLRAEDTAVYYCARQGYGNALDYWGQGTLVTVSS
VL: B2 VL with A57S, D61E, V89F, F98Y, I99Y, F100Y
notes: as for B2
- binding result (Human CLDN18.1): no binding (tested: 1000 nM)

B4: bispecific antibody CS2 (bispecific antibody, human IgG1, kappa)
light: DIVMTQSPSSLTVTAGEKVTMSCKSSQSLLNSGNQKNYLTWYQQKPGQPPKLLIYWASTRESGVPDRFTGSGSGTDFTLTISSVQAEDLAVYYCQNDYSYPFTFGSGTKLEIKRTVAAPSVFIFPPSDEQLKSGTASVVCLLNNFYPREAKVQWKVDNALQSGNSQESVTEQDSKDSTYSLSSTLTLSKADYEKHKVYACEVTHQGLSSPVTKSFNRGEC
heavy 1: QVQLQQPGAELVRPGASVKLSCKASGYTFTSYWINWVKQRPGQGLEWIGNIYPSDSYTNYNQKFKDKATLTVDKSSSTAYMQLSSPTSEDSAVYYCTRSWRGNSFDYWGQGTTLTVSSASTKGPSVFPLAPSSKSTSGGTAALGCLVKDYFPEPVTVSWNSGALTSGVHTFPAVLQSSGLYSLSSVVTVPSSSLGTQTYICNVNHKPSNTKVDKKVEPKSCDKTHTCPPCPAPPVAGPSVFLFPPKPKDTLMISRTPEVTCVVVDVSHEAPEVQFNWYVDGVEVHNAKTKPREEQFNSTFRVVSVLTVVHQDWLNGKEYKCKVSNKGLPAPIEKTISKTKGQPREPQVYTLPPCRDELTKNQVSLWCLVKGFYPSDIAVEWESNGQPENNYKTTPPVLDSDGSFFLYSKLTVDKSRWQQGNVFSCSVMHEALHNHYTQKSLSLSPGK
heavy 2: QVQLQQPGAELVRPGASVKLSCKASGYTFTSYWINWVKQRPGQGLEWIGNIYPSDSYTNYNQKFKDKATLTVDKSSSTAYMQLSSPTSEDSAVYYCTRSWRGNSFDYWGQGTTLTVSSASTKGPSVFPLAPSSKSTSGGTAALGCLVKDYFPEPVTVSWNSGALTSGVHTFPAVLQSSGLYSLSSVVTVPSSSLGTQTYICNVNHKPSNTKVDKKVEPKSCDKTHTAPAPAPAPAPAPAPAPQVQLVESGGGVVQPGRSLRLSCAASGFTFSTYAMNWVRQAPGKGLEWVARIRSKYNNYATYYADSVKDRFTISRDDSKNTLYLQMNSLRAEDTAVYYCARHGNFGNSYVSWFAYWGQGTLVTVSSGGGGSGGGGSGGGGSQTVVTQEPSLTVSPGGTVTLTCRSSTGAVTTSNYANWVQQKPGQAPRGLIGGTNKRAPGVPARFSGSLLGGKAALTLSGVQPEDEAEYYCALWYSNLWVFGGGTKVEIKGGGGSDKTHTCPPCPAPPVAGPSVFLFPPKPKDTLMISRTPEVTCVVVDVSHEAPEVQFNWYVDGVEVHNAKTKPREEQFNSTFRVVSVLTVVHQDWLNGKEYKCKVSNKGLPAPIEKTISKTKGQPREPQVCTLPPSRDELTKNQVSLSCAVKGFYPSDIAVEWESNGQPENNYKTTPPVLDSDGSFFLVSKLTVDKSRWQQGNVFSCSVMHEALHNHYTQKSLSLSPGK
notes: CSBODY structure: two 175D10 Fab arms; second heavy chain (first heavy entry) and first heavy chain with anti-CD3 scFv (2a5) between CH1 and Fc2
- Induction of expression of CD25 EC50 (pM), NUGC4 (Human CLDN18.2 [2]): 216 pM
- Induction of expression of CD25 EC50 (pM), NUGC4-hCLDN18.2 (Human CLDN18.2 [2]): 1.21 pM
- Induction of expression of CD69 EC50 (pM), NUGC4 (Human CLDN18.2 [2]): 29.5 pM
- Induction of expression of CD69 EC50 (pM), NUGC4-hCLDN18.2 (Human CLDN18.2 [2]): 0.389 pM
- EC50 (pM), in vitro killing by hPBMC, NUGC4-hCLDN18.2 cells (Human CLDN18.2 [3]): 2.17 pM
- Kd (human CD3 antigen): 3.1 nM
- EC50 (Human CLDN18.2 [4]): 36 nM

B5: bispecific antibody CS9 (bispecific antibody, human IgG1, kappa)
light: B4 light
heavy 1: B4 heavy 1
heavy 2: not shown
notes: CSBODY structure: two 175D10 Fab arms; second heavy chain (first heavy entry) and first heavy chain with anti-CD3 scFv (L2K) between CH1 and Fc2
- EC50 value for killing effect on NUGC4-hCLDN18.2 cells (Human CLDN18.2 [5]): < 0.01 nM
- EC50 (Human CLDN18.2 [1]): < 50 nM
- binding result (Human CLDN18.1): no binding

B6: bispecific antibody Y6 (bispecific antibody, human IgG1, kappa)
light: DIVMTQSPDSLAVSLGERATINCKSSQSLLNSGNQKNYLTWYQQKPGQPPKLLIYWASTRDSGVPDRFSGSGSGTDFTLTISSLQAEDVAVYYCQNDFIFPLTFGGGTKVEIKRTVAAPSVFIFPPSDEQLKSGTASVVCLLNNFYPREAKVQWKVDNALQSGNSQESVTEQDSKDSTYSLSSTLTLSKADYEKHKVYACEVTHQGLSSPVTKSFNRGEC
heavy: QVQLQESGPGLVKPSETLSLTCTVSGFSLTRYGVSWIRQPPGKGLEWIGVIWGEGNTNYNPSLKSRVTISKDSSKSQVSLKLSSVTAADTAVYYCARVNFGNALDYWGQGTLVTVSSASTKGPSVFPLAPSSKSTSGGTAALGCLVKDYFPEPVTVSWNSGALTSGVHTFPAVLQSSGLYSLSSVVTVPSSSLGTQTYICNVNHKPSNTKVDKKVEPKSCDKTHTCPPCPAPPVAGPSVFLFPPKPKDTLMISRTPEVTCVVVDVSHEAPEVQFNWYVDGVEVHNAKTKPREEQFNSTFRVVSVLTVVHQDWLNGKEYKCKVSNKGLPAPIEKTISKTKGQPREPQVYTLPPCRDELTKNQVSLWCLVKGFYPSDIAVEWESNGQPENNYKTTPPVLDSDGSFFLYSKLTVDKSRWQQGNVFSCSVMHEALHNHYTQKSLSLSPGK
chain: QVQLVESGGGVVQPGRSLRLSCAASGFTFSTYAMNWVRQAPGKGLEWVARIRSKYNNYATYYADSVKDRFTISRDDSKNTLYLQMNSLRAEDTAVYYCARHGNFGNSYVSWFAYWGQGTLVTVSSGGGGSGGGGSGGGGSQTVVTQEPSLTVSPGGTVTLTCRSSTGAVTTSNYANWVQQKPGQAPRGLIGGTNKRAPGVPARFSGSLLGGKAALTLSGVQPEDEAEYYCALWYSNLWVFGGGTKVEIKGRGRGSDKTHTCPPCPAPPVAGPSVFLFPPKPKDTLMISRTPEVTCVVVDVSHEAPEVQFNWYVDGVEVHNAKTKPREEQFNSTFRVVSVLTVVHQDWLNGKEYKCKVSNKGLPAPIEKTISKTKGQPREPQVCTLPPSRDELTKNQVSLSCAVKGFYPSDIAVEWESNGQPENNYKTTPPVLDSDGSFFLVSKLTVDKSRWQQGNVFSCSVMHEALHNHYTQKSLSLSPGK
notes: YBODY structure: anti-CLDN18.2 Fab arm (2C6.9) and second monomer anti-CD3 scFv (2a5)-Fc
- Induction of expression of CD25 EC50 (pM), NUGC4 (Human CLDN18.2 [2]): 17.2 pM
- Induction of expression of CD25 EC50 (pM), NUGC4-hCLDN18.2 (Human CLDN18.2 [2]): 2.32 pM
- Induction of expression of CD69 EC50 (pM), NUGC4 (Human CLDN18.2 [2]): 4.87 pM
- Induction of expression of CD69 EC50 (pM), NUGC4-hCLDN18.2 (Human CLDN18.2 [2]): 0.592 pM
- EC50 (pM), in vitro killing by hPBMC, NUGC4-hCLDN18.2 cells (Human CLDN18.2 [3]): 1.07 pM
- EC50 (pM), in vitro killing by hPBMC, NUGC4 cells (Human CLDN18.2 [3]): 7.99 pM
- Kd (human CD3 antigen): 5.77 nM
- EC50 (Human CLDN18.2 [6]): 184 nM
- EC50 (Human CLDN18.2 [4]): 45.9 nM

B7: bispecific antibody Y8 (bispecific antibody, human IgG1, kappa)
light: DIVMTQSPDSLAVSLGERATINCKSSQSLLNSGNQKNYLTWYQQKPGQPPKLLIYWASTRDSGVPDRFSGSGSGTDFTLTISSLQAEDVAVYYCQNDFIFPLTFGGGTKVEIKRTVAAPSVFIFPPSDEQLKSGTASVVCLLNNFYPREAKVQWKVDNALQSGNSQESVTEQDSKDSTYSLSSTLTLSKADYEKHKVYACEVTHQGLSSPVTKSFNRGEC
heavy: B6 heavy
chain: not shown
notes: YBODY structure: anti-CLDN18.2 Fab arm (2C6.9) and second monomer anti-CD3 scFv (L2K)-Fc
- Induction of expression of CD25 EC50 (pM), NUGC4 (Human CLDN18.2 [2]): 182 pM
- Induction of expression of CD25 EC50 (pM), NUGC4-hCLDN18.2 (Human CLDN18.2 [2]): 16.5 pM
- Induction of expression of CD69 EC50 (pM), NUGC4 (Human CLDN18.2 [2]): 33.3 pM
- Induction of expression of CD69 EC50 (pM), NUGC4-hCLDN18.2 (Human CLDN18.2 [2]): 2.98 pM
- EC50 (pM), in vitro killing by hPBMC, NUGC4-hCLDN18.2 cells (Human CLDN18.2 [3]): 4.09 pM
- EC50 (pM), in vitro killing by hPBMC, NUGC4 cells (Human CLDN18.2 [3]): 57.8 pM
- EC50 (Human CLDN18.2 [6]): 75.1 nM
- EC50 (Human CLDN18.2 [4]): 46.9 nM

B8: bispecific antibody Y1 (bispecific antibody, human IgG1, kappa)
light: B4 light
heavy: B4 heavy 1
chain: B6 chain with F112A, V178F
notes: YBODY structure: anti-CLDN18.2 Fab arm (175D10) and second monomer anti-CD3 scFv (2a5ga)-Fc
- Kd (human CD3 antigen): 1980 nM

B9: bispecific antibody CS5 (bispecific antibody, human IgG1, kappa)
light: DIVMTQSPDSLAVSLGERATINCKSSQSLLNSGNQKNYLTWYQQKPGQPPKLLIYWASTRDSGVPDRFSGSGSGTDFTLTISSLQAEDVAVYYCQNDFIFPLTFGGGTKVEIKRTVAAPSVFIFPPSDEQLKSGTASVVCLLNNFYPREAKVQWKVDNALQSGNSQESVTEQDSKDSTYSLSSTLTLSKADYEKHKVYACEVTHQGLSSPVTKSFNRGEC
heavy 1: B6 heavy
heavy 2: QVQLQESGPGLVKPSETLSLTCTVSGFSLTRYGVSWIRQPPGKGLEWIGVIWGEGNTNYNPSLKSRVTISKDSSKSQVSLKLSSVTAADTAVYYCARVNFGNALDYWGQGTLVTVSSASTKGPSVFPLAPSSKSTSGGTAALGCLVKDYFPEPVTVSWNSGALTSGVHTFPAVLQSSGLYSLSSVVTVPSSSLGTQTYICNVNHKPSNTKVDKKVEPKSCDKTHTAPAPAPAPAPAPAPAPQVQLVESGGGVVQPGRSLRLSCAASGFTFSTYAMNWVRQAPGKGLEWVARIRSKYNNYATYYADSVKDRFTISRDDSKNTLYLQMNSLRAEDTAVYYCARHGNFGNSYVSWAAYWGQGTLVTVSSGGGGSGGGGSGGGGSQTVVTQEPSLTVSPGGTVTLTCRSSTGAVTTSNYANWFQQKPGQAPRGLIGGTNKRAPGVPARFSGSLLGGKAALTLSGVQPEDEAEYYCALWYSNLWVFGGGTKVEIKGGGGSDKTHTCPPCPAPPVAGPSVFLFPPKPKDTLMISRTPEVTCVVVDVSHEAPEVQFNWYVDGVEVHNAKTKPREEQFNSTFRVVSVLTVVHQDWLNGKEYKCKVSNKGLPAPIEKTISKTKGQPREPQVCTLPPSRDELTKNQVSLSCAVKGFYPSDIAVEWESNGQPENNYKTTPPVLDSDGSFFLVSKLTVDKSRWQQGNVFSCSVMHEALHNHYTQKSLSLSPGK
notes: CSBODY structure: two 2C6.9 Fab arms; second heavy chain (first heavy entry) and first heavy chain with anti-CD3 scFv (2a5ga) between CH1 and Fc2
- Induction of expression of CD25 EC50 (pM), NUGC4 (Human CLDN18.2 [2]): 481 pM
- Induction of expression of CD25 EC50 (pM), NUGC4-hCLDN18.2 (Human CLDN18.2 [2]): 142 pM
- Induction of expression of CD69 EC50 (pM), NUGC4 (Human CLDN18.2 [2]): 141 pM
- Induction of expression of CD69 EC50 (pM), NUGC4-hCLDN18.2 (Human CLDN18.2 [2]): 70.5 pM
- EC50 (pM), in vitro killing by hPBMC, NUGC4-hCLDN18.2 cells (Human CLDN18.2 [3]): 132 pM
- EC50 (pM), in vitro killing by hPBMC, NUGC4 cells (Human CLDN18.2 [3]): 433 pM
- EC50 (Human CLDN18.2 [6]): 25.7 nM
- EC50 (Human CLDN18.2 [4]): 18.2 nM
